{"source": "IntAct's records for PubMed 12600646", "biological_target": "RNF216, Q9NWF9-3", "sequence (Q9NWF9 379-866)": "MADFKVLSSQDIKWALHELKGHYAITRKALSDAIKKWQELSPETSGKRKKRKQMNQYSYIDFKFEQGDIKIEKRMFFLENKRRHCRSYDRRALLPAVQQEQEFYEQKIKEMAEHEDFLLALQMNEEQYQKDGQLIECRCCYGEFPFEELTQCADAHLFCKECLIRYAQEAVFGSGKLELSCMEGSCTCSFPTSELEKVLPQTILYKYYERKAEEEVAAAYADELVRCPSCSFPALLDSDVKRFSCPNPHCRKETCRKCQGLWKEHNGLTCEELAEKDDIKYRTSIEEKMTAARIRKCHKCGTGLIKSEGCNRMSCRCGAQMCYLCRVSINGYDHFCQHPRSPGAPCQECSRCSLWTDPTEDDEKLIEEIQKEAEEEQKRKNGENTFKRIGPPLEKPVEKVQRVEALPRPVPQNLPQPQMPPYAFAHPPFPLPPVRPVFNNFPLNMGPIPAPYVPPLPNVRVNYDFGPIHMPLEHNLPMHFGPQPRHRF", "data": [{"substance": "Virion infectivity factor (Human immunodeficiency virus type 1 group M subtype B (isolate NY5) (HIV-1)), P12504 Q105A;L106A;I107A", "values": [{"measurement": "effect of a mutation on the interaction", "result": "disrupting interaction"}]}]}
